{"source": "patent US20070099268A1", "about": "“Chimeric HCN channels” (priority 2005, published 2007)", "molecules": {"B1": {"name": "HCN1: mouse HCN1 channel isoform (protein)", "chain": "MEGGGKPNSASNSRDDGNSVFPSKAPATGPVAADKRLGTPPGGGAAGKEHGNSVCFKVDGGGGEEPAGSFEDAEGPRRQYGFMQRQFTSMLQPGVNKFSLRMFGSQKAVEKEQERVKTAGFWIIHPYSDFRFYWDLIMLIMMVGNLVIIPVGITFFTEQTTTPWIIFNVASDTVFLLDLIMNFRTGTVNEDSSEIILDPKVIKMNYLKSWFVVDFISSIPVDYIFLIVEKGMDSEVYKTARALRIVRFTKILSLLRLLRLSRLIRYIHQWEEIFHMTYDLASAVVRIFNLIGMMLLLCHWDGCLQFLVPLLQDFPPDCWVSLNEMVNDSWGKQYSYALFKAMSHMLCIGYGAQAPVSMSDLWITMLSMIVGATCYAMFVGHATALIQSLDSSRRQYQEKYKQVEQYMSFHKLPADMRQKIHDYYEHRYQGKIFDEENILSELNDPLREEIVNFNCRKLVATMPLFANADPNFVTAMLSKLRFEVFQPGDYIIREGAVGKKMYFIQHGVAGVITKSSKEMKLTDGSYFGEICLLTKGRRTASVRADTYCRLYSLSVDNFNEVLEEYPMMRRAFETVAIDRLDRIGKKNSILLQKFQKDLNTGVFNNQENEILKQIVKHDREMVQAIPPINYPQMTALNCTSSTTTPTSRMRTQSPPVYTATSLSHSNLHSPSPSTQTPQPSAILSPCSYTTAVCSPPIQSPLATRTFHYASPTASQLSLMQQPQQQLPQSQVQQTQTQTQQQQQQQQQQQQQQQQQQQQQQQQQQQQQQQQQQQQQPQTPGSSTPKNEVHKSTQALHNTNLTKEVRPLSASQPSLPHEVSTLISRPHPTVGESLASIPQPVAAVHSTGLQAGSRSTVPQRVTLFRQMSSGAIPPNRGVPPAPPPPAAVQRESPSVLNTDPDAEKPRFASNL"}, "B2": {"name": "mE324A: mHCN2 with glutamate at position 324 mutated to alanine (protein, UniProt O88703 1-863, looked up, variant E324A)", "Potassium/sodium …": "MDARGGGGRPGDSPGTTPAPGPPPPPPPPAPPQPQPPPAPPPNPTTPSHPESADEPGPRARLCSRDSACTPGAAKGGANGECGRGEPQCSPEGPARGPKVSFSCRGAASGPSAAEEAGSEEAGPAGEPRGSQASFLQRQFGALLQPGVNKFSLRMFGSQKAVEREQERVKSAGAWIIHPYSDFRFYWDFTMLLFMVGNLIIIPVGITFFKDETTAPWIVFNVVSDTFFLMDLVLNFRTGIVIEDNTEIILDPEKIKKKYLRTWFVVDFVSSIPVDYIFLIVEKGIDSEVYKTARALRIVRFTKILSLLRLLRLSRLIRYIHQWAEIFHMTYDLASAVMRICNLISMMLLLCHWDGCLQFLVPMLQDFPSDCWVSINNMVNHSWSELYSFALFKAMSHMLCIGYGRQAPESMTDIWLTMLSMIVGATCYAMFIGHATALIQSLDSSRRQYQEKYKQVEQYMSFHKLPADFRQKIHDYYEHRYQGKMFDEDSILGELNGPLREEIVNFNCRKLVASMPLFANADPNFVTAMLTKLKFEVFQPGDYIIREGTIGKKMYFIQHGVVSVLTKGNKEMKLSDGSYFGEICLLTRGRRTASVRADTYCRLYSLSVDNFNEVLEEYPMMRRAFETVAIDRLDRIGKKNSILLHKVQHDLSSGVFNNQENAIIQEIVKYDREMVQQAELGQRVGLFPPPPPPQVTSAIATLQQAVAMSFCPQVARPLVGPLALGSPRLVRRAPPGPLPPAASPGPPAASPPAAPSSPRAPRTSPYGVPGSPATRVGPALPARRLSRASRPLSASQPSLPHGVPAPSPAASARPASSSTPRLGPAPTARTAAPSPDRRDSASPGAASGLDPLDSARSRLSSNL"}}, "key": {"[1]": {"system": "AdHCN2 infected culture", "experiment": "Modulation of spontaneous rate by drugs in an AdHCN2 infected culture", "assay_type": "cell-based, rat", "details": "superfusion with drug; control record of same culture 48, 54 and 96 beats/min respectively"}, "[2]": {"system": "cell-free patches from Xenopus oocytes", "details": "binding of cAMP to the CNBD; cited from earlier work"}, "[3]": {"system": "Xenopus oocytes", "experiment": "Two-microelectrode voltage clamp of mHCN2 and mE324A expressed in Xenopus oocytes", "assay_type": "cell-based, Xenopus laevis", "description": "Oocytes were prepared from mature female Xenopus laevis in accordance with an approved protocol as previously described (Yu et al., 2004).\nFor expression of HCN in Xenopus oocytes, oocytes were injected with 5 ng of cRNA made from mouse wild-type mHCN2 and mutant mHCN2 (E324A) plasmids. Injected oocytes were incubated at 18° C. for 24-48 h prior to electrophysiological analysis.\nFor measurements in Xenopus oocytes, oocytes were voltage-clamped using a two-microelectrode voltage clamp technique. The extracellular recording solution (OR2) contained (in mM): NaCl, 80; KCl, 2; MgCl2, 1; and Na-HEPES, 5 (pH 7.6). For the recording of steady state activation of expressed Wt mHCN2, currents were elicited by 2-s long hyperpolarizing pulses between −30 mV and −160 mV with 10 mV increments, followed by a 1-s depolarizing pulse to +15 mV. The holding potential was −30 mV. As to the mHCN2 (E324A), currents were elicited by 3-s-long hyperpolarizing pulses between +20 mV and −130 mV with 10 mV increments, followed by a 1 second depolarizing pulse to +50 mV. The holding potential was +20 mV. To construct the current/voltage relationship for wildtype (Wt) mHCN2, the cell was held at […], the current was elicited by a 2-s hyperpolarizing voltage step to −140 mV to saturate activation, and followed by 2-s depolarizing voltage steps between […] and +50 mV in 10 mV increments. For mHCN2 (E324A), the cell was held at +20 mV, current was elicited by a 1.5-s hyperpolarizing voltage step to −110 mV to saturate activation, and then followed by 1.5-s depolarizing voltage steps between −80 mV and +50 mV in 10 mV increments for the recording of tail currents. To record the current amplitudes for Wt mHCN2, the current was evoked by applying a 3-s hyperpolarizing voltage pulse to −120 mV from a holding potential of −30 mV. For mHCN2 (E324A), the current was evoked by applying a 3-s hyperpolarizing voltage pulse to −120 mV from a holding potential of +20 mV."}}, "note": "“Also recorded” adds a separate entry of the source.", "data": [{"molecule": "C[N+](C)(C)CCOC(N)=O", "note": "[carbachol]", "values": [{"measurement": "spontaneous rate during drug exposure", "setting": "[1]", "result": 45, "unit": "beats/min"}]}, {"molecule": "CCN(c1ccccc1)c1cc(=NC)n(C)c(C)n1.Cl", "note": "[ZD-7288]", "values": [{"measurement": "spontaneous rate during drug exposure", "setting": "[1]", "result": 78, "unit": "beats/min"}]}, {"molecule": "B1", "values": [{"measurement": "shift of activation curve to more positive potentials by cAMP", "setting": "[2]", "result": 4, "unit": "mV"}]}, {"molecule": "B2", "values": [{"measurement": "activation threshold", "setting": "[3]", "result": "around −30 mV"}, {"measurement": "slope (s) with cAMP", "setting": "[3]; 8-Br-cAMP 1 mM", "result": 19.7, "unit": "mV"}, {"measurement": "Vh with cAMP", "setting": "[3]; 8-Br-cAMP 1 mM extracellular", "result": "−48.9", "unit": "mV"}, {"measurement": "effect of Cs+ on inward current", "setting": "[3]; Cs+ 5 mM", "result": "blocked; also recorded: large inhibition"}, {"measurement": "slope (s), control", "setting": "[3]; control", "result": 15.2, "unit": "mV"}, {"measurement": "reversal potential of IHCN2", "setting": "[3]; fully activated current/voltage relation", "result": "~−40", "unit": "mV"}, {"measurement": "half maximal activation (Vh), control", "setting": "[3]; oocytes, control", "result": "−57.3", "unit": "mV"}, {"measurement": "induced current", "setting": "[3]; single voltage pulse to −120 mV", "result": "579.8±18.2", "unit": "nA"}]}]}
